Patent US20070004622A1 (REGEN BIOTECH, published 2007)

Target: αvβ3 integrin (human, UniProt P06756 31-1048; P05106 27-788)
Assay: cell-based or functional assay

Chain of αvβ3 integrin (P06756 31-1048, chain 1 of 2): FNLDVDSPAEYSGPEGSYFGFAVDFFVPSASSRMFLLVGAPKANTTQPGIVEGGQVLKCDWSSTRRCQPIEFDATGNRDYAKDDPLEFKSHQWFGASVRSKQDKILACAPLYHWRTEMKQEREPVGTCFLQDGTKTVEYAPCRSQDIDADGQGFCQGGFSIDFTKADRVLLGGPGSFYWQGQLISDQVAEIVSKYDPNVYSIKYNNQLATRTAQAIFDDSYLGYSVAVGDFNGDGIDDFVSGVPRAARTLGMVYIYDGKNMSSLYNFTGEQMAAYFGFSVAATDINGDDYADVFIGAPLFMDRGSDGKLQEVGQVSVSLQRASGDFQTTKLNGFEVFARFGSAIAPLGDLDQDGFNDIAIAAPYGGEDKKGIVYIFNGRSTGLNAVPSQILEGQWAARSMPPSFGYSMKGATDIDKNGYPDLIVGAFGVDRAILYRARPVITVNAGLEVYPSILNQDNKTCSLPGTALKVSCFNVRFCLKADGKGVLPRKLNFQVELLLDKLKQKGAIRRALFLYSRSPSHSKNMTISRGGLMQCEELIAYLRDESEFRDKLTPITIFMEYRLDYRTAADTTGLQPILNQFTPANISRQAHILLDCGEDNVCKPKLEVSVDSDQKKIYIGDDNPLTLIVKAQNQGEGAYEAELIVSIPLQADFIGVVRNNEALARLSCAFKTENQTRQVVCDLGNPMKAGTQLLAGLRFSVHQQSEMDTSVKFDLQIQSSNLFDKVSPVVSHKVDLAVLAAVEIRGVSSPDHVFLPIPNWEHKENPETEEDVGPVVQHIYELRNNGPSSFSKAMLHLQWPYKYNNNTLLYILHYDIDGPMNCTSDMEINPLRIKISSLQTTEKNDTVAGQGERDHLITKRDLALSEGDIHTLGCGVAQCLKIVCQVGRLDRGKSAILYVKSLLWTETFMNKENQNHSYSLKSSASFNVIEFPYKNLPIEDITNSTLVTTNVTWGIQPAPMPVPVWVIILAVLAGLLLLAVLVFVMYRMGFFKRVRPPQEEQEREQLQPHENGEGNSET
Chain of αvβ3 integrin (P05106 27-788, chain 2 of 2): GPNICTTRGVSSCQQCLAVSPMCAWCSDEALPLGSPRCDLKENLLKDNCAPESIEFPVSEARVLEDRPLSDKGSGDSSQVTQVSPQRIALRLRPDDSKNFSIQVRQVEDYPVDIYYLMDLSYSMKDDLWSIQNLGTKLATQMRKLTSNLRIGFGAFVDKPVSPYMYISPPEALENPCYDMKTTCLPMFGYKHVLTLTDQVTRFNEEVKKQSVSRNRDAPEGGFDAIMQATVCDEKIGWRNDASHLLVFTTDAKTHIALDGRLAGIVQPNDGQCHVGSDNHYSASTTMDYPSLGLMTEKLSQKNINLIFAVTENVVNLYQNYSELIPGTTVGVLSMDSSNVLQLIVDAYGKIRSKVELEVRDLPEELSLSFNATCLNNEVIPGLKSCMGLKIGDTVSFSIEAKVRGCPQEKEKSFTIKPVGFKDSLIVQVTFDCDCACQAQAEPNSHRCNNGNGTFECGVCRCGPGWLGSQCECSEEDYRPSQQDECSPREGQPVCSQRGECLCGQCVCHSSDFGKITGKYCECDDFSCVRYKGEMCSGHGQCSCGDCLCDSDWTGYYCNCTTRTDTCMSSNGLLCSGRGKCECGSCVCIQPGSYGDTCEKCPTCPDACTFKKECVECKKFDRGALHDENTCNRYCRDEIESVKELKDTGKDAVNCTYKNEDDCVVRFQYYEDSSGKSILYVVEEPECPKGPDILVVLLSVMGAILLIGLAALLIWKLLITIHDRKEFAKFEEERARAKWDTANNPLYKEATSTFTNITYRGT

IC50 of inhibition of HUVEC tube formation on Matrigel: 500 µM
Binder: KELANILKYHIGDEILVS [YH18 synthetic peptide derived from the fourth fas-1 domain of βig-h3 (D-IV YH18)]
